T1: domains 5-7 of CD22 conjugated to green fluorescent protein, expressed in Jurkat cells (human, UniProt P20273 414-687)
T1 construct: also called Jurkat-CD22 (D5-D7)-GFP; not shown: membrane anchor and green fluorescent protein (GFP) fusion
T1 sequence: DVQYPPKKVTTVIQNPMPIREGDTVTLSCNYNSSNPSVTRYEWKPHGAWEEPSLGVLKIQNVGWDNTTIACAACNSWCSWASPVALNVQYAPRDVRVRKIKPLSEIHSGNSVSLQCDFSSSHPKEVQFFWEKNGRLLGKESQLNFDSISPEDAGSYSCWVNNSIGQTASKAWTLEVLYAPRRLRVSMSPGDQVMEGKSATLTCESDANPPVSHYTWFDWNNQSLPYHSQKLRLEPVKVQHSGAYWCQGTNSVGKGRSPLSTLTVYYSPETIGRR

T2: full-length human CD22 (human, UniProt P20273 20-847)
T2 construct: CD22 on the cell surface: natural on Raji and NALM-6 cells, introduced in Jurkat cells (full-length) and in K562+CD22 cells; The K562 construct is not described further; also called Jurkat-CD22-full; CD22 on Raji, NALM-6 and K562+CD22 cells
T2 sequence: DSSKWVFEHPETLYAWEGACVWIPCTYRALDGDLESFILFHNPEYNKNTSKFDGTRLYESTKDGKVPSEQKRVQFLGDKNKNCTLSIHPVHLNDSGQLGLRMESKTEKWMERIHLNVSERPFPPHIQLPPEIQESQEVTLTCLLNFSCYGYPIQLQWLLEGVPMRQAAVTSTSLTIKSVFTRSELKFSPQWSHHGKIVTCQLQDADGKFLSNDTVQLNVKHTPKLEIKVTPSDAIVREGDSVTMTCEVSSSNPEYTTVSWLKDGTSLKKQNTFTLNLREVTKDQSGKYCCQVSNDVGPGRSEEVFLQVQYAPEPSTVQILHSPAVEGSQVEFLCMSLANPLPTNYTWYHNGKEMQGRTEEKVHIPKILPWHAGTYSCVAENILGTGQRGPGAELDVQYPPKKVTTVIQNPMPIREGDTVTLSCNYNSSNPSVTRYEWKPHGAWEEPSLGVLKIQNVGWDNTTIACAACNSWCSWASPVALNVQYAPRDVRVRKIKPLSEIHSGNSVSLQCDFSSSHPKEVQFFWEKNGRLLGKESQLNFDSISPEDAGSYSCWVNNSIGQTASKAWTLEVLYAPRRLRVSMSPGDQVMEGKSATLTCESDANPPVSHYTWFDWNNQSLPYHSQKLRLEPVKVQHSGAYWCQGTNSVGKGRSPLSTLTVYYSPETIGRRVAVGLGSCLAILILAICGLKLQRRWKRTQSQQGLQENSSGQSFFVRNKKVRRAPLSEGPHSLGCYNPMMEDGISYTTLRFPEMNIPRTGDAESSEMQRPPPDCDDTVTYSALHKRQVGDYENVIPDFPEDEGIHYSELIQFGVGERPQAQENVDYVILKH


Columns and labels:
[1] = biological target: T1, domains 5-7 of CD22 conjugated to green …; assay: flow cytometry, phage clone on Jurkat cells expressing domains 5-7 of CD22-GFP
full-length human CD22 [2] = biological target: T2, full-length human CD22; assay: flow cytometry, phage clone on Raji cells and Jurkat cells expressing full-length CD22
[3] = biological target: T1, domains 5-7 of CD22 conjugated to green …; assay: flow cytometry, phage clone on cells
full-length human CD22 [4] = biological target: T2, full-length human CD22; assay: flow cytometry, phage clone on NALM-6 cells

| Binder | binding result [1] | binding result (full-length human CD22 [2]) | binding result [3] | binding result (full-length human CD22 [4]) |
| --- | --- | --- | --- | --- |
| phage clone 1 (anti-CD22 clone 1) (scFv, V domains shown) VH: not shown VL: QSVVTQPPSVSAAPGQKVTISCSGSSSNIGNNYVSWYQQLPGTAPKLLIYENNKRPSGIPDRFSGSKSGTSATLGITGLQTGDEADYYCGTWDSSLSAGAVFGGGTKLTVLG | binds | binds |  |  |
| phage clone 2 (anti-CD22 clone 2) (scFv, V domains shown) VH: QVQLVESGGGLVQPGGSLRLSCAASGFTFSNYAMSWVRQAPGKGLEWVSSISGSGGSTYYADSVKGRFTISRDTSKNTLYLQMNSLRAEDTAVYYCARYGSAAWMDSWGQGTLVTVSS VL: DIQLTQSPSSLSTSVGDRVTITCQASHDIRNYLNWYQQKPGKAPNLLIYAASNLQTGVPSRFSGRGSGTDFTLTISSLQPEDIATYYCQQYDGLPLTFGQGTRLEIKR |  |  | binds | binds |
